Reference: paper PMC9472616

Tests used:
[1] = target: American mink ACE2 fused to mouse Fc (AmkACE2-mFc) (American mink (Neovison vison)); assay: SPR
[2] = target: European mink ACE2 fused to mouse Fc (EmkACE2-mFc) (European mink); assay: SPR

Work on “SARS-CoV-2 WT RBD (from UniProt P0DTC2 319-541) (domain or fragment)” yielded a Kd [1] of 8.92 µM and a Kd [2] of 52.8 µM.
